Article PMC3094755
Where “and” joins values, the source holds several entries; their conditions need not be identical. Equal values may be shown once.

Target: PARP-1 F1 (Homo sapiens) (UniProt P09874)
Assay: fluorescence anisotropy
Settings: 5'-phosphate; FA: 50 mM Tris-HCl pH 7, 150 uM ZnSO4, 4 mM DTT, 0-200 mM NaCl, 25 C, 10 nM DNA (mutants 25 nM DNA, 25 mM NaCl); EMSA: 50 mM Tris-HCl pH 7.4, 150 uM ZnSO4, 4 mM

PARP-1 F1 (Homo sapiens), sequence (P09874 1-108): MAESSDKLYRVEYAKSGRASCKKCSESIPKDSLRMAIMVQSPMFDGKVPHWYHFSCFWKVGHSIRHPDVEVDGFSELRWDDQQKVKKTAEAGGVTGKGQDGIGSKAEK

“CGGTCGATCGTAAGATCGACCGGCGCTGGAGCTTGCTCCAGCGC [44-nt nicked dumbbell, 5'-phosphate, fluorescein-dT]” was tested, and the Kd was 6.6 µM and 1.1 µM.
